# Source: patent US20060211003
# Tested on: putative Thermus thermophilus Pol III ε-subunit
substance,measurement,value
Thermus thermophilus DNA Pol III α-subunit (DnaE),3′→5′ exonuclease activity,This interaction stimulates the 3′→5′ exonuclease activity 5 fold
